Assay results as given in patent US20090238821A1.

Columns and labels:
[1] = molecular target: Amyloid-beta 1-40 (UniProt P05067); test: BIAcore 2000, antibody captured by rabbit anti-mouse, peptide flowed
[2] = molecular target: Amyloid-beta 1-42 (UniProt P05067); test: as above
[3] = molecular target: human Aβ peptide (human) (UniProt P05067); test: BIAcore 2000, 266 against 4G8
[4] = molecular target: human Aβ peptide (human) (UniProt P05067); test: plasma of APP V717F mice given 200 or 600 µg Mab 266 i.v., RIA (in vivo)
[5] = molecular target: human Aβ peptide (human) (UniProt P05067); test: dialysis chamber, 1 mL human CSF against 1 µg Mab 266, 25 kD cutoff, 3 hours, ELISA
[6] = molecular target: human Aβ peptide (human) (UniProt P05067); test: dialysis chamber, 1 mL human CSF against 1 µg Mab 266, 100 kD cutoff, 3 hours, ELISA
[7] = molecular target: β-amyloid peptide (1-42) conjugated to BSA (UniProt P05067); test: competitive ELISA on Aβ1-42-BSA, competitor of biotinylated Mu266 (0.3 µg/ml), first set
[8] = molecular target: β-amyloid peptide (1-42) conjugated to BSA (UniProt P05067); test: competitive ELISA on Aβ1-42-BSA, competitor of biotinylated Mu266 (0.3 µg/ml), second set
[9] = molecular target: human Aβ peptide (human) (UniProt P05067); test: plasma of APP V717F mice given 1 mg Mab 266 i.v., non-denaturing gel, blot with biotin-3D6 and 125I-streptavidin against Aβ40/266 standards (in vivo)

Kd [1] [µM] | Kd [2] [µM] | fold difference in affinity between 266 and 4G8 [3] [fold] | concentration of Aβ bound to Mab 266 in plasma [4] [ng/mL] | percent of Aβ peptide sequestered in the bottom chamber [5] [%] | percent of Aβ peptide drawn across the membrane [6] [%] | IC50 [7] [µg/mL] | IC50 [8] [µg/mL] | amount of Aβ peptide bound to Mab 266 in plasma [9] [ng/mL] | Substance
0.023 | 0.024 | – | – | – | – | – | – | – | Mab 4G8 (antibody)
4 | 4 | 6000 | > 100 | 50 | 100 | 4.7 | 3.87 | 100 | mouse monoclonal antibody 266
